Assays:
[1] = target: the molecule itself; assay: SEC-MALS; Superdex 75 with Dawn HELEOS II, three-detector method (MALS/UV/RI), 0.3 mL/min; 100 mM Tris/HCl pH 7.5, 150 mM NaCl, 1 mM EDTA, 10 mM β-ME, 1 mM DPC, 2 mM LDAO; second elution peak of each complex
[2] = target: T1, Mpc1^linker: Mpc1 with C-terminal ENLYFQG (TEV site), flexible linker (GGGGS)4, WSHPQFEK and 8×His-tag (Saccharomyces cerevisiae, UniProt P53157 1-130); assay: SEC; monomers refolded alone or pre-mixed 1:1 in LDAO/DPC (2:1), then Superdex 75 10/300 GL in 100 mM Tris/HCl pH 7.5, 150 mM NaCl, 1 mM EDTA, 10 mM β-ME, 1 mM DPC, 2 mM LDAO; peaks analysed by SDS-PAGE with Coomassie staining; conditions: both partners purified
T1 construct: Mpc1, Saccharomyces cerevisiae, NCBI NM_001180945; The extension was added so that Mpc1 and Mpc2 can be told apart by size on SDS-PAGE; no TEV cleavage is described; not shown: 8×His, C-terminal, kept
T1 sequence (looked up): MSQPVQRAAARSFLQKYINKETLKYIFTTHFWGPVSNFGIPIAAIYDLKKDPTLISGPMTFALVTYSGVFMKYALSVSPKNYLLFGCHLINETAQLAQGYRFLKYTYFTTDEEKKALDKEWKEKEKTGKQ

[3] = target: T2, Saccharomyces cerevisiae mitochondrial pyruvate carrier 1 (Mpc1) with C-terminal 8×His-tag (Saccharomyces cerevisiae, UniProt P53157 1-130); assay: paramagnetic relaxation enhancement (PRE) NMR; MTSL-labelled monomer co-refolded with 15N-labelled monomer; 1H-15N BEST-TROSY with and without vitamin C; 25 mM NaAc pH 6.0, 50 mM glutamic acid, 50 mM arginine, 10 mM β-ME, 1 mM EDTA, 1 mM DPC, 2 mM LDAO; 308 K, 850 MHz; conditions: both partners purified
T2 construct: Mpc1, Saccharomyces cerevisiae, NCBI NM_001180945; amplified from a cDNA library with printed primers that run from the ATG to the last codon before the stop; 15N-labelled where it was the observed partner in NMR; The reverse primer carries a BamHI site, so a few vector-coded residues may lie between Mpc1 and the His-tag (surmised); also called 15N-Mpc1; yeast Mpc1
T2 sequence (looked up): T1 sequence (looked up)

[4] = target: T3, Saccharomyces cerevisiae mitochondrial pyruvate carrier 1 (Mpc1) with C-terminal 8×His-tag (Saccharomyces cerevisiae), P53157; assay: SEC-MALS; Superdex 75 with Dawn HELEOS II, three-detector method (MALS/UV/RI), 0.3 mL/min; 100 mM Tris/HCl pH 7.5, 150 mM NaCl, 1 mM EDTA, 10 mM β-ME, 1 mM DPC, 2 mM LDAO; second elution peak of each complex; conditions: remark: other sources report otherwise
T3 chain: T1 sequence (looked up)

B1: Saccharomyces cerevisiae mitochondrial pyruvate carrier 2 (Mpc2) with C-terminal 8×His-tag (natural protein, UniProt P38857 1-129, looked up)
chain: MSTSSVRFAFRRFWQSETGPKTVHFWAPTLKWGLVFAGFSDMKRPVEKISGAQNLSLLSTALIWTRWSFVIKPRNILLASVNSFLCLTAGYQLGRIANYRIRNGDSISQLCSYILSGADESKKEITTGR
notes: Mpc2, Saccharomyces cerevisiae, NCBI NM_001179293; amplified from a cDNA library with printed primers that run from the ATG to the last codon before the stop; 15N-labelled where it was the observed partner in NMR; The reverse primer carries a BamHI site, so a few vector-coded residues may lie between Mpc2 and the His-tag (surmised); also called 15N-Mpc2; yeast Mpc2
stoichiometry N [1]: 2
stoichiometry N [2]: ~1

B2: MTSL-labelled Mpc2 monomer (MTSL on C86 and C111) (natural protein, Saccharomyces cerevisiae, UniProt P38857 1-129, looked up)
chain: B1 chain
modifications: MTSL spin label on C86 and C111
notes: Mpc2, Saccharomyces cerevisiae, NCBI NM_001179293; same construct as m2, not isotope-labelled; Same chain as m2 with the paramagnetic probe on its cysteines; also called MTSL–Mpc2; source: E. coli Rosetta 2 (DE3), inclusion bodies, purified
binding result [3]: binds

B3: Saccharomyces cerevisiae mitochondrial pyruvate carrier 1 (Mpc1) with C-terminal 8×His-tag, P53157 1-130 (natural protein)
chain: T1 sequence (looked up)
stoichiometry N [4]: 2

Reference: article PMC10216714, “NMR and Patch-Clamp Characterization of Yeast Mitochondrial Pyruvate Carrier Complexes” (Biomolecules, 2023)
